Laboratory results from paper PMC6092110, “Binding of Dickkopf-3 to CXCR7 Enhances Vascular Progenitor Cell Migration and Degradable Graft Regeneration” (Circulation Research, 2018).

Molecular target: T1, CXCR7 (HA tagged) overexpressed in HEK 293T cells (UniProt P56485 1-362)
T1 construct: CXCR7 (C-X-C chemokine receptor type 7), HA tagged, overexpressed from an expression plasmid in HEK 293T cells; source: HEK 293T, transfected, in lysate
Assay: ELISA; saturation binding: lysates of HEK 293T cells overexpressing the receptor loaded onto high-affinity-binding ELISA plates coated with anti-HA antibody; serial dilutions of AP-conjugated ligand (or AP alone); AP activity read; Scatchard analysis; n=3
Settings: one partner purified

T1 sequence (P56485 whole entry): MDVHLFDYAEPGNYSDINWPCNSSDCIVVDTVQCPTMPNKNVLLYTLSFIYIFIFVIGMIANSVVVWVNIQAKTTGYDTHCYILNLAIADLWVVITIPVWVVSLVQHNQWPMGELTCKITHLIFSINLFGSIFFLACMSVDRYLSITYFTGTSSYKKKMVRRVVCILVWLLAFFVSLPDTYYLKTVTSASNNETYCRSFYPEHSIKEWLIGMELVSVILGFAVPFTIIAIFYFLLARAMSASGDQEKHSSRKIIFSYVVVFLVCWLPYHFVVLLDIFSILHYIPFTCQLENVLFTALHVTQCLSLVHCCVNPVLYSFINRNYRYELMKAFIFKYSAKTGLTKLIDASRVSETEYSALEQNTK

B1: Dkk3-AP (Dkk3 conjugated with alkaline phosphatase) (ligand)
chain: not shown
**Q.** With B1 as the binder, how does the Kd read?
**A.** Its Kd is 14.1 nM.
